The supplement of paper PMC10126150
± gives the standard deviation of the averaged measurements.

Tested on: ATP
Assay: switch fluorescence ratio, 500 uM ATP over buffer (Cy3 cluster intensity, sum of 5 cycles each) (fold (ratio)); higher = stronger signal-on switching upon ATP binding; sequences stand for … in TCGTCGGCAGCGTCAGATGTGTATAAGAGACAGTTTTTTTTTTTTTTTTTTTTTTTTT…TC
Details: aptamer strand: ATP DNA aptamer (quencher-CACCTGGGGGAGTATTGCGGAGGAAGG + anchor), 100 nM annealed; ATP concentration: 500 uM
How it was run: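 Switching-strand clusters labelled with Cy3 on a modified Illumina MiSeq flow-cell were annealed to 100 nM quencher-labelled ATP aptamer, imaged in selection buffer, and re-imaged after 15 min with 500 uM ATP at 22 °C. This was done over five cycles with NaOH stripping and re-annealing in between. The fluorescence ratio is summed target-cycle over summed buffer-cycle Cy3 intensity per cluster, averaged per switch-domain sequence, excluding clusters outside 100-1000 RFU.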
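Also: ATP exposure 15 min at 22 °C before imaging.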

Sequence	switch fluorescence ratio
AGATTTTGCG	0.991 ± 0.01
AGATTTTTAA	1.004 ± 0.0097
AGATTTTTGA	0.942 ± 0.069
AGATTTTTGT	0.972 ± 0.019
AGATTTTTTA	0.954 ± 0.016
AGCAAATAGT	1.28 ± 0.028
AGCAAGGGCA	1.0103 ± 6.2e-05
AGCAAGTCCT	1.12 ± 0.015
AGCAATAGTT	2.97 ± 0.051
AGCAATTGTG	1.04 ± 0.029
AGCACATTTG	0.97 ± 0.017
AGCACGGGAA	1.03 ± 0.03
AGCACGGTTA	1.04 ± 0.049
AGCACGTTAT	1.256 ± 0.012
AGCAGAGAAA	0.982 ± 0.046
AGCAGAGTTG	1 ± 0.018
AGCAGGAAGG	0.9956 ± 0.0041
AGCAGGGGTT	1 ± 0.053
AGCATAAGGC	1.02 ± 0.019
AGCATCACTT	1.04 ± 0.029
AGCATGAGTA	1.01 ± 0.014
AGCATGATGC	0.991 ± 0.037
AGCATGCCTG	1.02 ± 0.058
AGCATGGGGG	1.01 ± 0.023
AGCATGGTGG	1.02 ± 0.046

Sequence	switch fluorescence ratio
AGCATGTAGA	0.989 ± 0.046
AGCATTTTCC	1.135 ± 0.0063
AGCCAAAATA	1.04 ± 0.017
AGCCAGGGAG	1.028 ± 0.0056
AGCCAGTTCG	1 ± 0.012
AGCCATATAG	1.048 ± 0.0066
AGCCCCATAG	1.17 ± 0.042
AGCCGAATTT	0.997 ± 0.019
AGCCGCCCCG	1.1 ± 0.1
AGCCGCTCGT	0.99 ± 0.033
AGCCGGGGTA	0.995 ± 0.025
AGCCGTACTC	1.2 ± 0.23
AGCCGTCAAC	1.05 ± 0.041
AGCCGTCCCC	0.993 ± 0.02
AGCCGTTTGA	1.023 ± 0.0016
AGCCTACTTT	1 ± 0.038
AGCCTAGGAT	1.04 ± 0.0021
AGCCTCGTGG	0.992 ± 0.019
AGCCTGACTG	1.12 ± 0.033
AGCGAAGGGG	1.01 ± 0.047
AGCGACGGGA	1.1 ± 0.048
AGCGAGGGA	1.029 ± 0.0068
AGCGAGTTTT	1.01 ± 0.012
AGCGATGGCC	1.05 ± 0.028
AGCGCAAGAT	1.791 ± 0.013

Sequence	switch fluorescence ratio
AGCGCGGTAA	1 ± 0.013
AGCGCGTTGT	1.02 ± 0.044
AGCGGAGAGT	1 ± 0.029
AGCGGATGCA	0.985 ± 0.02
AGCGGCATCT	0.983 ± 0.0093
AGCGGGGGGA	1.01 ± 0.025
AGCGGGGTTT	0.987 ± 0.011
AGCGGGTGCC	1.02 ± 0.039
AGCGGGTTGG	1.029 ± 0.0082
AGCGGTCCGG	1 ± 0.058
AGCGTACTCG	1.11 ± 0.047
AGCGTAGGGG	0.94 ± 0.033
AGCGTATGGG	0.983 ± 0.035
AGCGTATTGG	0.998 ± 0.035
AGCGTCGCAG	0.9715 ± 0.0087
AGCGTGACTG	0.987 ± 0.019
AGCGTGAGGG	1.02 ± 0.018
AGCGTGGTGG	0.958 ± 0.033
AGCGTGTAGG	1 ± 0.15
AGCGTGTTTA	1.04 ± 0.036
AGCGTTCAGC	0.9849 ± 0.0026
AGCTAGTTAC	1.38 ± 0.014
AGCTATCCCG	0.991 ± 0.046
AGCTATGTGG	0.9812 ± 0.0064
AGCTCGCCAC	1.05 ± 0.046

Sequence	switch fluorescence ratio
AGCTCGGGGG	1 ± 0.034
AGCTGACATT	0.999 ± 0.034
AGCTGATTC	1.031 ± 0.0099
AGCTGGGGGT	1.02 ± 0.06
AGCTGGGGTG	1.03 ± 0.06
AGCTGTGTGG	1.01 ± 0.012
AGCTGTTTAG	1 ± 0.014
AGCTTAAGAC	1.36 ± 0.041
AGCTTGGGCA	1.02 ± 0.0095
AGCTTGTCAA	0.9774 ± 0.0067
AGCTTTGCTA	0.9582 ± 0.0072
AGCTTTGGTA	1.016 ± 0.0026
AGGAAACTCG	1.03 ± 0.052
AGGAAAGTTT	0.955 ± 0.028
AGGAAATGGG	1 ± 0.036
AGGAACATAG	1.15 ± 0.2
AGGAAGCAG	1.003 ± 0.0027
AGGAAGGG	1.0069 ± 0.00083
AGGAAGGGGC	0.96 ± 0.018
AGGAATAAAA	0.961 ± 0.1
AGGAATATCA	0.998 ± 0.041
AGGACAGTCG	0.929 ± 0.045
AGGACCGGGG	1.024 ± 0.0095
AGGACCGGGT	1.03 ± 0.021
AGGACCGTTA	1 ± 0.031
